{
  "source": "paper PMC8752512",
  "about": "(Journal of molecular biology, 2021)",
  "biological_target": "Fgr SH3 domain (human, UniProt P09769 77-138, uniformly 15N-labelled)",
  "test": "NMR titration",
  "data": [
    {"binder": "PPTPNPPRPP", "note": "[arrestin-3 aSwI peptide (PPTPNPPRPP)]", "values": [
      {"measurement": "Kd", "result": 347, "unit": "µM"}
    ]}
  ]
}
